Laboratory results: article PMC2957469

Experiments:
[1] = biological target: JCV VP1 pentamer (amino acids 22-289) A126Q, His-tagged (JC polyomavirus (JCV), Mad-1 strain); assay: SEC
[2] = biological target: JCV VP1 pentamer (amino acids 22-289) A126Y, His-tagged (JC polyomavirus (JCV), Mad-1 strain); assay: SEC
[3] = biological target: JCV VP1 pentamer (amino acids 22-289) L54Y, His-tagged (JC polyomavirus (JCV), Mad-1 strain); assay: SEC
[4] = biological target: JCV VP1 pentamer (amino acids 22-289) N123A, His-tagged (JC polyomavirus (JCV), Mad-1 strain); assay: SEC
[5] = biological target: JCV VP1 pentamer (amino acids 22-289) R265A, His-tagged (JC polyomavirus (JCV), Mad-1 strain); assay: SEC
[6] = biological target: JCV VP1 pentamer (amino acids 22-289) S266A/S268A, His-tagged (JC polyomavirus (JCV), Mad-1 strain); assay: SEC
[7] = biological target: JCV VP1 pentamer (amino acids 22-289) S266N/S268N, His-tagged (JC polyomavirus (JCV), Mad-1 strain); assay: SEC
[8] = biological target: JCV VP1 pentamer (amino acids 22-289, Mad-1 strain), His-tag removed, as crystallized (JC polyomavirus (JCV), Mad-1 strain); assay: crystal structure
[9] = biological target: JCV VP1 pentamer (amino acids 22-289, Mad-1 strain), His-tagged, wild type (JC polyomavirus (JCV), Mad-1 strain); assay: SEC

## JCV VP1 pentamer (amino acids 22-289) A126Q, His-tagged (domain or fragment)
[1]
  stoichiometry N: 5

## JCV VP1 pentamer (amino acids 22-289) A126Y, His-tagged (domain or fragment)
[2]
  stoichiometry N: 5

## JCV VP1 pentamer (amino acids 22-289) L54Y, His-tagged (domain or fragment)
[3]
  stoichiometry N: 5

## JCV VP1 pentamer (amino acids 22-289) N123A, His-tagged (domain or fragment)
[4]
  stoichiometry N: 5

## JCV VP1 pentamer (amino acids 22-289) R265A, His-tagged (domain or fragment)
[5]
  stoichiometry N: 5

## JCV VP1 pentamer (amino acids 22-289) S266A/S268A, His-tagged (domain or fragment)
[6]
  stoichiometry N: 5

## JCV VP1 pentamer (amino acids 22-289) S266N/S268N, His-tagged (domain or fragment)
[7]
  stoichiometry N: 5

## JCV VP1 pentamer (amino acids 22-289, Mad-1 strain), His-tag removed, as crystallized (domain or fragment)
[8]
  stoichiometry N: 5

## JCV VP1 pentamer (amino acids 22-289, Mad-1 strain), His-tagged, wild type (domain or fragment)
[9]
  stoichiometry N: 5
